Measurements: the DeepSol protein solubility set

experiment: soluble on expression in E. coli; label from the status in PepcDB or PDB records

Sequence	soluble on expression in E. coli
MEAQAQGLLETEPLQGTDEDAVASADFSSMLSEEEKEELKAELVQLEDEITTLRQVLSAKERHLVEIKQKLGMNLMNELKQNFSKSWHDMQTTTAYKKTHETLSHAGQKATAAFSNVGTAISKKFGDMSYSIRHSISMPAMRRK	soluble
MEDRNITEEDRVCPQLPEFDEQANVQTDLKKMKPGDAIGKNWKVVKAIQSDKGFNTIYVAEHVQKKKKMAAVKVERKTEAIKMLQFELFVLLTVEKKNQCKQFCKLFEKGNEKEYNWIAITLCGKSLRALRKNQPTGKLTVACGLSVAQQCLKGLEELHRMGFIHRNVAPSVFAIGRYTGDNQSDLRNIYILDFGFAHQYMIKDGTLKPPSAHPWKYVGSLRHMPRAAYSKVEFSRMEDLEMWFYMSVELVKGCLPWAHLKKPKEVHDYQKLCRNGLQMREMLGGLPPEFVDIMQIVDKLSFTDTPNYTEIYGLLTNAILFSGKNEFPYDWEEAEINEFKNPQKPSVEQAT	not soluble
MENAGKATSLQSSRDLFHRLMSENSSGGWEKSWEAGATPWDLGKPTPVIAHLVETGSLPNGRALVPGCGTGYDVVAMASPDRHVVGLDISKTAVERSTKKFSTLPNAKYFSFLSEDFFTWEPAEKFDLIFDYTFFCAFEPGVRPLWAQRMEKLLKPGGELITLMFPIDERSGGPPYEVSVSEYEKVLIPLGFEAISIVDNELAVGPRKGMEKLGRWKKSSTFHSTL	soluble
MEIALERIYGHRLALPQVGAALLFAQEAPPALLLVPEARLRRYRDLSAFGAKVYVNPGLEALEEKALFVLSYEEALSPFPEDPEAWRLLLEVGRAYPREALLSRLLKLGYARDEDYRVLGEVVELGEVRLEFFGDELERLVVRGEERRRHVLLPKPGKAEGFTSKKVLHFPGPVYLDTPALAPKALWPLLAGRPWVALGGGVELPPLELGARPLPPYRGSLKALEKDLARWLAEGKRVHLFVGHARTLEYLKRRLQAFSPLILDRFPGPKGRLALLPGDFEGGAEWGEWVLLTEALVFATGGVRARVRVGEGLSDPGALSPGDYLIHPEHGVGQYLGLETREVLGVKRDYLVLRYKGEGKLYLPVEQLPLLKRHPGTTDDPPELSSLGKNEWQRAKERARKDVEELAGRLLVLQAKRKATPGRAFPPLPEWDPLVEKGFPYELTPDQKRALEEVLRDLESPHPMDRLVSGDVGFGKTEVALRAAHRVVGHGAQVAFLGPTTLLAEQHGKTFRERFQGLPVRVAVLSRFTPPKEEEAILKGLAEGTVDIVIGTHRLLQEDVRFRDLGLLIVDEEHRFGVAQKERIRELKAEVDTLYLSATPIPRTLYSALVGLKDLSSIQTPPPGRKPIKTFLAPFDPLLVREAILFELERGGKVFYVHDRVASIEARRRFLENLVPEARIGVVHGQMPESLIEETMLLFAEGAYDVLLATTIIEAGLDVPEANTILIERADRLGLATLYQLRGRVGRREEEAYAYLFHPPRLTEAAEKRLAAIADLSDLGSGHLLAERDMEIRGVGNLLGPEQHGHIRALSLEVYTELLEEAIRKLKGEAKEERRHVTLDLALSARLPAEYVGSLEARSRYYSRFAEAKSLAELSRLVRELKERYGPLPEEAENFVALARLRLVAERKGVVSITEGLTHLEVVFPRYPLDYDARGLKGLPYRVELTQYPPGFRLEKKGLRPRDYPEALMEVLYLFADL	soluble
MTRIAIVGAGPAGLSLAYFLKGSRKVEATVYESMPEPGLKPCAWGLITGIENIIPIPNETIISEIRGFRIYLDNKLVFDIRTDNKLGYIIDKPLFLKRLSQEVNVEFNSKVVKKDDKYYINDKSLDHDKVIFATGHYSVSKSMSIPAIQYITDYEIDKEVVEFYFYSGFLGYAWVFPDREGSKIGIGGYAEVPELKERLKQILKGRIRTFHGARVTDYGVIEDRLDGNYTGEALGTVYAITGEGIRPSIISSKILADSILNRKDFKKEFKKSKLYWSLNWHAKIIKMTKENDPGTARLSKALLNNDPQLILKFAIGEFNRVDLIKIFGRSLILEHHHHHH	soluble
MGSDKIHHHHHHMVLSGSPYERGFQHGNRFADLISQALDRRLASLSAADLSQAHKRASDVLATIDVMAPHVGTELRGIADGAGREVSGIVLRSSFELLASPTATGCSGLAVQTRDGALIAQNWDGPLGSDVEQALFIHVGTSGFEFATVAAVGALGWVGFNRAGFGFVNNDLVLKSRCDGIPSQIVRRVFLGCPDVNAAVEAAKSLPHMAGRAYLFGDASNKIASIEVSARHGVSVCRSGSFLAHTNHALNDQIRADEDAELLARQYPSSQKRLEVLKMREAGCADACEVMDILRDRTNAPDSVCKQTSLREPTQTAFSVVMQCRNRTLFLVRGMPSATEYQRISL	not soluble
IIYKETKPEEYNLRNPVVTQDYTVSMSGGNDRGTYYASLGYNDSPGAPITTEYTRYNFTFNGSYKIADWLKTTSNATFSRANYVWLNNDWGTEADYFGRVMSSPPTVRFEDEDGNSTLGPSPGDGNQTYVARSYDQDNERTKLTLMQSVEANLFKGLVLRASASWYYFHTVEENMRKDYETVPGQWDRTRSTSASYSRQFSQTYNAVLDYTTTFATSHNLNVMLGSEFYDQYNNGFSASGFGASTDDFKKLGLTDAGEGKRSIDSSHSRYRILSYFGRLNYDYEGKYLFSGVFRYDGYSSLLGKNRWGFFPGVSGGWVFTKEDFVKESLPFLYYGKLRASYGLNGNASGIGPYTLQGSYNSNKYHGNNGFLIGALPNPSLRWEKTASFDIGLNVGLLDGRLNLDIDYYNRLTSDKYADLTLPSTTGFSSIRNNNGKLRNRGIELQLSGKIMETRDFTWDASLNITYNKNKIIALPYNKEPRNRQEGQQVYTGRKIANPETGVFEDEKVWVGGFQEGMEYGVLVGYQAEGIYQSMDDIPGDLVVKSGNAQGKYQYGPDAWKRLSAAEQAKGVEIKPGDMKWKDVNGDGMIDQYDQVVIGNTTPRWFGGFNTTMSWKGLSLYARFDFALDYWVYDNQTPWLLGCMQGTYNTTKDVFNTWNESNPNAKYPRYVYGDQLGTANYNRTSTLFASKGNYLGVRELSLSYTLPQELSKKLYMQKLQFSITGQNLGYLTSARTVSPEISSGYPLPRTVILGVNVTF	not soluble
MGSDKIHHHHHHMKPIDIKENKNPVESAQFGKTQDEPLSDKTHVQISDEATQWLLTIEEDDSENNQQALNAWLSLSAQHKKVYQQLQTLWEVADELPVDLFSEDLLGLSMTPSSAVNTSSRVNPYALKKESILAKFISFFTLRKTMYTASFASVIFATFITFTQYNREMVTTDKPLQVASSSTLRTNEYQTKLGEHKTITAQDGSIIVLAAKSQVFIDYSANRRDIHLLYGEALFTVEKDKERPFIVHNHGRSVQALGTIFNVRESKSAMQVSVLEGIVEVNVEPEVKSKVTNSSDKNQVATLVAGQALELDSLGQFSTTYAIEVNERMAWQDGRLNYVNTDLANVIFDLKRYSTLSIHIPNKQVANMGYTGSVIYDKVDDWLIALPYIFPVEVQRHGNSVVIVKRKE	not soluble
MSDQMRIPCVIMRAGTSKGIFLKGNDLPADQELRDKVILRIFGSPDVRQIDGLAGADPLTSKLAIIGPSTHPDADVDYTFAQVSITDAVVDYNGNCGNISAGVGPFAIDESFVKAVEPMTRVCIHNTNTGKLLYAEVEVEDGKAKVSGDCKIDGVPGTNAPELMDFSDTAGAATGKVLPTGNVVDVLSTSKGDIDVSIVDVANPCIFVHAKDVNMTGTETPDVINGNADLLAYLEEIRAKCCVKIGMAATEKEASEKSPAFPMIAFVTKPEDYVDFSTGNTISGDDVDLVSRLMFMQVLHKTYAGTATACTGSAARIPGTIVNQVLRDTGDEDTVRIGHPAGVIPVVSIVKDGKVEKAALIRTARRIMEGYVYVEKAKLVGSAWSHPQFEK	soluble
MGSDKIHHHHHHLSISIGSIKRAEAGKNILYRTLVQLSEFFHISIEDLIGDIPVSLWDYVRERPTQLIPCIGRDWELSLLQKLQLSSKTGLKTACVYGMQGLGKTSLVRHFLSRLDQTNWRALYLCSLDQGTFLRRFICTLLDISEIFDDEQLRFRIKMISTSPLVYFYLLRLSGLVLHKSELQAINNLSENRLHEVEVLSVMGLIQNFKQRKVSVLAIDSLHILNEGQLRVIKIFTQNMITQPILIIFSLTDVHRLLYLPDWLQSSNQIQLKPLQAIAMNALVNNEVEMNPCQPMKLAAYKKIVVQRARGNPLILKALIKSKRPDQDFPEEMVNSVQGMLTQLTGIECRLLQFLAACGPCVSIDTLELFNSQLSEPCICLLHRLVRIGFLYPRSECYIFRHILIWEIVKAQMNDSDTASVYSEQHNRLNA	not soluble
MEKISDLIECIAYEKNLPKEMISKVIQGCLLKMAQNELDPLARYLVVEENKQLQLIQLVEVLEDGDERLVNDPSKYISLSKAKEMDPSVKIKDELSYSLSLESMKQGAINRLFKDLQYQLEKALEDSHFEAFQKRLNSVLMGQVILVDHNQNTFIEIEQQFQGVLSMRHRIKGESFKVGDSIKAVLTQVKRTKKGLLLELSRTTPKMLEALLELEVPEIKDKEIEIIHCARIPGNRAKVSFFSHNARIDPIGAAVGVKGVRINAISNELNKENIDCIEYSNVPEIYITLALAPAKILSVEIKKIPIEELNAEEKESIQERFIVNNHLQKAKVRLLDIEKSKAIGKGGVNVCLASMLTGYHIEFETIPSVKENAENESEKETPKVGVEALESLFKN	not soluble
MGSDKIHHHHHHMKQILNTLYVMTQGAYVCLDHETVKVEVKGALQMQVPLHHLGAIVTMGNVMMSPFIMARCAEDGRALVILDRNGKFKCRVVGKTSGNVLLRQTQYEAVRDRERSAAIARNMVAGKVKNARQILMRGARETTDADESAVLRKAGDTLADALFHLKDATDIDHVRGLEGEAANAYFQVFDRMVKEEERPAFRMNGRNRRPPLDPMNALLSFLYTLLLNDCISAVEGVGLDSQMGFLHVLRPGRPSLGLDIMEEFRAVLADRLALTLINRKQITEKHFEVRPGGATYLDDAGRKEVIMAYQKRKQDEFHHPVLDQKVPFGLLPHVQARLLARHLRGDLEQYTPVLYS	not soluble
MKTVKHLLQEKGHTVVAIGPDDSVFNAMQKMAADNIGALLVMKDEKLVGILTERDFSRKSYLLDKPVKDTQVKEIMTRQVAYVDLNNTNEDCMALITEMRVRHLPVLDDGKVIGLLSIGDLVKDAISQHQFVINQLERYIYDTREI	soluble
MSRAVSRLIEACGRLSITQRSQMHFFRPPPTSSILPPLVTPSTTIVEKSIELPSLENPQQIYTFPTLHRSPIVAPGAILTEILEKLAPTAEKGFLIAPGTPNKSPMWLSPRLLTIRRKKMKKHKRRRRYDRDFFKYQKYHREKKLKSEREFQKRMKSLLTELEAFNPEKYVKDTIRMANKEWQDELAPTGRKLYPHWSRFMSLEQLYGLPKSEYIDKRAGLPTPEEAEQIKALKEKYAKLYRKK	soluble
MKIVEALKANGVEVIITEKADVLIKNFENAHISYALSADEKTGVIFFGGFEEKMKAGLAEHHVAILKEEDVKENILLAYEHARRKSDVLFASSSASKTADIEGKTVFGMHGPRKFTVVLVVRK	not soluble
MATVIHNPLKALGDQFYKEAIEHCRSYNSRLSAERSVRLPFLDSQTGVAQNNCYIWMEKRHRGPGLAPGQLYTYPARCWRKKRRLHPPEDPKLRLLEIKPEVELPLKKDGFTSESTTLEALLRGEGVEKKVDAREEESIQEIQRVLENDENVEEGNEEEDLEEDIPKRKDRTRGRARCPLPSLHCFSSLPSAVIDAKEWGGGGKWEATVAYRKKKIYPVHIFNMLEHHHHHH	not soluble
MTALPLSAVTVVSVCYNSDRLIRDLVTAIPDETPIILVDNGHTNTFADLPPHRNVIIVKLDHNLGFGRGCNAGADVAQTPWILFLNPDARLNPGAIEGLLQAAAQYPSAIAFNPRIYNEDGSPYFKRRSWLLPRQHYMKKGWPSADAVVPVLSGAALFVSKKSFDYIGGFDPSIFMYHEDDDLSLRLSALGELRFVRNSTVVHFAGYSSGRSPEIARFKAYHMAQSKIYAGQKHHRPFAKTSTLLQGCLLLLSPHVFFSARRRAKALGFLHGALAKIWSELLNAASTSSQKKT	soluble
